In one data set the target is KaiC-AA (S431A, T432A) (UniProt Q79PF4). Kind of data set: cryo-EM structure; single-particle cryo-EM of pure KaiC-AA or KaiC-EE, 0.35 ug/ul in 20 mM Tris-HCl (pH 8.0), 150 mM NaCl, 5 mM MgCl2, 0.5 mM EDTA, 1 mM ATP; incubated at 30 °C for 6 h.
Data set [1] concerns the molecule itself. The data set is described as above.

“KaiC-AA (S431A, T432A) (from UniProt Q79PF4 14-484) (natural protein)” displayed a stoichiometry N in the data set with KaiC-AA (S431A, T432A) of 6.

B1: KaiC-EE (S431E, T432E) (natural protein)
chain: EHQAIAKMRTMIEGFDDISHGGLPIGRSTLVSGTSGTGKTLFSIQFLYNGIIEFDEPGVFVTFEETPQDIIKNARSFGWDLAKLVDEGKLFILDASPDPEGQEVVGGFDLSALIERINYAIQKYRARRVSIDSVTSVFQQYDASSVVRRELFRLVARLKQIGATTVMTTERIEEYGPIARYGVEEFVSDNVVILRNVLEGERRRRTLEILKLRGTSHMKGEYPFTITDHGINIFPLGAMRLTQRSSNVRVSSGVVRLDEMCGGGFFKDSIILATGATGTGKTLLVSRFVENACANKERAILFAYEESRAQLLRNAYSWGMDFEEMERQNLLKIVCAYPESAGLEDHLQIIKSEINDFKPARIAIDSLSALARGVSNNAFRQFVIGVTGYAKQEEITGLFTNTSDQFMGAHSITDSHIEEITDTIILLQYVEIRGEMSRAINVFKMRGSWHDKAIREFMISDKGPDIKDSFRNFERIISGSPTRI
notes: source: hexamer fractions selected; not shown: His6, N-terminal, cleaved
For the molecule B1, the “stoichiometry N” value in data set [1] worked out at 6.

What is called stoichiometry N is a count of units in the complex or per binding partner.

For the origin of these results see publication PMC10516925, “Determining subunit-subunit interaction from statistics of cryo-EM images: observation of nearest-neighbor coupling in a circadian clock protein complex” (Nature Communications, 2023).
